From the DeepSol protein solubility set

Assay: soluble on expression in E. coli; label from the status in PepcDB or PDB records

## MEKQYRVLLYYKYVPIEDPEAFREQHLAFCKELGLLGRILVSSEGINGTVSGTVEQTEKYMETMKADPRFADMVFKIDEAEGHAFKKIFVRHKKELVTLRLEDDVDPNETTGQHLKPAEFYEKMQDPNTIVIDARNDYEYDLGHFRGAVRPDIEAFRELPEWIEEHKDMLEGKKILTYCTGGVRCEKFSGWLVKQGFEDVAQLDGGIVTYGKDPEVQGKLWDGQCYVFDERISVPVNRVEHVIVGKDYFTGEPCERYVNCANPSCNKKMICTPENEYKYMRSCSHECRTNPRNLYVKEHNMTEEEVNARLAAIETEDHAAAELEHHHHHH
  soluble on expression in E. coli: soluble

## LMENGPEFKIEVSILKDVATVMIDTTGSSLFKRGYRTEKGGAPIKENMAAAILQLSNWYPDKPLIDPTCGSGTFCIEAVMIARKMAPGLRRSFAFEEWNWISDRLIQEVRTEAAKKVDRELELDIMGCDIDARMVEIAKANAQVAGVAGDITFKQMRVQDLRSDKINGVIISNPPYGERLSDDAGVTKLYAEMGQVFAPLKTWSKFILTSDEAFESKYGSQADKKRKLYNGTLKVDLYQYFGQRVKRQEVK
  soluble on expression in E. coli: not soluble

## MNFRTGQPSDAAALAAISIEVWLGTYMRKGVSAFFAEYALNEFTSTKMASLLKDPNEHVIVSENEGGIDAFIRLGQGRAAPVSGCSTLEIATLYVQPRHHRRGLGRALLEQGLAYARQASAPSVWLTTNSENAPAIAFYLEQGFEKVGTTHFNIGDQ
  soluble on expression in E. coli: not soluble

## MKRHFETTRRIVIKVGTSSLVQTSGKINLSKIDHLAFVISSLMNRGMEVILVSSGAMGFGLDILKMDKRPQEISQQQAVSSVGQVAMMSLYSQIFSHYQTHVSQILLTRDVVVFPESLQNVTNSFESLLSMGILPIVNENDAVSVDEMDHKTKFGDNDRLSAVVAKITKADLLIMLSDIDGLFDKNPNIYDDAVLRSHVSEITDDIIKSAGGAGSKFGTGGMLSKIKSAQMVFDNNGQMILMNGANPRDILKVLDGHNIGTYFAQGKLEHHHHHH
  soluble on expression in E. coli: not soluble

## MAITLKTYAYTINRVLYFHTFVKFLFSNLVSFDTFEEIGNDVAVIVFLEHSFTRSHEKRHVCRESLLLSSCNNKLSRIHGLSERISKRYQKPSRGDIVVIRSPENPNKTPIKRVVGVEGDCISFVIDPVKSDESQTIVVPKGHVFVQGDYTHNSRDSRNFGPVPYGLIQGRVLWRDNTTGIVTQVVLDTALLRETTNGLRIKTYQGGSGYVQGIRFTNVEMQDTSAVKISHIMYRNITKSAKAIKFACSDTVPCSHIVLNNVNLEGKDGQVEAYCNSAEGFGYGVYSHNDKGLDQTHKSEEAETGHDEL
  soluble on expression in E. coli: soluble

## MRDALLGALDAGAVCVNVDLAHAGQQAKLEPDTPYGDALGVGAGRNWAHVNSIAYDAKDDSIILSSRHQGIVKIGRDKQVKWILAPSKGWNKQLASKLLKPVDDHGKPLTCDENGKCKDTDFDFTYTQHTAWLSSKGTLTVFDNGDGRGLEQPALPTMKYSRFVEYKIDEKKGTVQQVWEYGKERGYDFYSPITSVVEYQKDRDTMFGFGGSINLFDVGKPTVGKLNEIDYKTKEVKVEIDVLSDKPNQTHYRALLVHPTQMFKLEHHHHHH
  soluble on expression in E. coli: soluble

## MVVRSLLRVSRLTSASCRHASLAVSSTPKPYIPSVTGVQKSMPFDNLLEQYSRVHWDDSVTYDDPNVQKLFKSLMSGSRAALASAITLVESRHPTKRAQGNMLLKMVLDEEREKYKKFGRDSMIFRVGISGSPGVGKSSFIEALGAELTENRGKKVAVLTIDPTSAMTGGSVLGDLTRMQELSRNPKAYIRQSPTSGSLGGVTRGIHEAVILCEGAGYDIVIIETVGVGQSETSVSDMCDMMCLLLSPAHGDELQGVKRGIMEMSDLLVVTKDDGDLKAKAKMTQAEYISALKFMRPRLDVWRPKVMRSSIMDKESVSEVCSSLYEFWDTIGESGDLERRRQDQMKKWMWNHVKDEIMSVFQKHPKIAHLAPKLENEIRSGKITPGLAAETMIRTFFGV
  soluble on expression in E. coli: not soluble

## MFKRLMMVALLVIAPLSAATAADQSNPYKLMNEAAQKTFDRLKNEQPKIRANPDYLRDVVDQELLPYVQVKYAGALVLGRYYKEATPAQREAYFAAFREYLKQAYGQALAMYHGQTYQIAPEQPLGDATIVPIRVTIIDPNGRPPVRLDFQWRKNTQTGNWQAYDMIAEGVSMITTKQNEWSDLLRTKGIDGLTAQLKSISQQKITLDEKQLEHHHHHH
  soluble on expression in E. coli: soluble

## MGSDKIHHHHHHMDIKQLQYLCNLEKERHFGRAAEASFVSQPTLSMRLKNLERELDLALINRGNNFEGFTAEGERVLAWAREIVSVYQGLKLEVASLKRGVSGVLRIGAVPQSSIALSSLLAAVNKEYPQLDFQISLFSADQLLEALNAHSVDVGIGFFEFSTLQELHFQASPLTEQGVDLLFHPHHFPQLVGDAPLALDALSDVPLCLAEASRYFRRYLDSHFREMGVSPWVKVESASVLQLIQSVYVGLGCGIVPHGSLIPEMTPALTLRPLQFPPMRRQPAVVIAQAGRATALAQNFFDVAQEWLQAQS
  soluble on expression in E. coli: not soluble

## MFEQIKNNVENAIEALKQGKPVVVLDDYDRENEGDLILPGQKATEENIAFMLEHTSGIICLAMDSKKARELNLTPMVAADQNNSTFTTPFTVTIEAKEGVTTGVSAKDRAHTIQVASKADSKAEELARPGHIFPLIANDKGVLGRNGHTEATVDLMKLSGFNSAGVLCELMNKDGTMMKAAELEAFAKKHDLPLLTIAELYQYRLATENFVTKMASSTIPFKKIGELEMSVYKDNFSGDEVVVLSKPYSGNNPLVRMHSSCITGDIFGSLRCDCQDQLHKGIEMISEEGGFFIYLDQEGRGIGLTNKLKAYNLQMNENMDTLEANLALGLPADARKYDLAIQVLKYNNVNRCRLISNNPEKLAALRNVDIETQPVYCEAFVNSHNRNYLITKKIKAKHTIKGI
  soluble on expression in E. coli: not soluble

## MGSDKIHHHHHHMTWNLAGSYSETCSCELMCPCNMSFDHGATYDFCRVTLAFNVHEGSVEGTDIAGRKVVLIADTPKVMTDGNWRVGVFVDDGASEEQFDKLVQVFGGQLGGPMAGLAPLIGEMLGVQRAAIDIEDDGLLHSVRVGDEIDFQIQDIVPFGVETGEPVRFAGMFHPVGSDLVMAEAKRTRINAFGITYEGKTGLSKSSFTWAA
  soluble on expression in E. coli: not soluble

## MLLNEIPWTIPLTVRLSNGLTHTFASVYEALDFLENEWPLRKGERYERAVRTCRRALNRMTPAAVAREAFIAACLEAGMPLVMAPPAREPQGDTVKAAHTA
  soluble on expression in E. coli: not soluble

## MGSDKIHHHHHHMKMDFKIRIAQQSDSAELRDLYKNTVLVVNRRDYSQDEVEDWASCGDDLSNIEEMIKTHYFIVAVNQLSQIVGFSSITPQGYLHSMFIHADFQGKGIATMLLEEIERYAITKGIIQITSEVSLTARPFFEKQKYVVKKEQKRQANKLNLTNFWMAKTLSVIKPYHGRIPACGVFCGGCPSYTRDEKICQGAEENKTRCEKCRTFYLCCVEKGITHCYQCHLFPCTKFKGFTKRWLKYGQDFIENQKFLKQVGEMEFLRFYNEKVTD
  soluble on expression in E. coli: not soluble

## MGSDKIHHHHHHMKLDDCQLLIHVHKAGTMRGAARSLHLSQPAISQRLKQMEDLWGGAIFIRTHKKLLLTPLGEKVLTFAQETLWRTERLREELEQMKGSVSGRLSLGISSVVSHYLIPPLLEKYTKAYPRVNIELISTTSDQIRRTFSSYHVAIFRGDRLPEQASHLLLADPLYLVFDKDIPIEKRPLIQWKSDPSLEALIQAWMRSVTSFTFRGHVSVDQIETCKQLMLRGVGAAILPEMAIKDVSDQCFHKLPLQLDNQPLERQTWVLYEEEALSLPQVEAFLQLLPLK
  soluble on expression in E. coli: not soluble

## MSLYSDQLVCPAHVPRGSPEGRVDAIAAMVTTRTAVQAPVERRTALFVNGQAWLTAQTTPHDLADWAVGRLCGEGLIAGPEEIAHLAVDEAGPCVHAVLPRVRTPAPPAPVAPGPRVAEAQLLRWMQEMLAQAPLYRATGGMHVAMAVRADSGEQIVREDIGRHQAVDKVLGAARLAGWPPAQVVVLTSGRISAEMCARVARFGAPVCASRTAATDEAWALATRLGMDLVGYVRTAASLIVYTTGNRVARRIEPEGHHHHHH
  soluble on expression in E. coli: soluble

## MNYLESEISALYASAHELCYLGMDGRPIYSDQFTRLNRDVFSQANALYDKRGNSHEEEARLCLSLLMGYNATLYNNGDKEERIQHILDRCWDVLEHLPASLLKVQLLVYCYGEVFDEELAREAQAIIDTWQDRKLSEEEREVVERLKDVQENPYPWSEVE
  soluble on expression in E. coli: not soluble

## MGSDKIHHHHHHMNFKRLIIYEAFARAYPGEKGKKFDSLIKDLERLKGMGINTVWLMPIHPTGIEGRKGTLGSPYAIRDYYEIDPLIGTKDDFKRFVKRAHELNMYVLMDMVLNHAAADNVLVREHPEWFLRDEKGNPTRKVPDWTDIVDFDYSNGELRKYMINMMKYWVEEFDVDGFRCDVAGLVPLDFWLQARKELDPVKRLIWLSETHDPYMYQAFDITYDYDGYYKFRDFIEGRGSLREYVDFLRMQDHMYPRGYIKMRFLENHDQPRIAKFIEEDSLVHWIAFLFTFKGVPLVHNGQEYGLKEDVDIFNEYTLPFPMEENRISILHRKLAHYRYGTSVFSEGEMLFVKNDQPEKVISYLWRYENRYILCMLNPLLENTKVTLDFSGIWESACIHSKNVFNDEIVRVPVKNSRATVEIGKEPLILSFVLY
  soluble on expression in E. coli: not soluble

## MKITNPVLKGFNPDPSICRAGEDYYIAVSTFEWFPGVQIHHSKDLVNWHLVAHPLQRVSQLDMKGNPNSGGVWAPCLSYSDGKFWLIYTDVKVVDGAWKDCHNYLVTCETINGDWSEPIKLNSSGFDASLFHDTDGKKYLLNMLWDHRIDRHSFGGIVIQEYSDKEQKLIGKPKVIFEGTDRKLTEAPHLYHIGNYYYLLTAEGGTRYEHAATIARSANIEGPYEVHPDNPILTSWHDPGNPLQKCGHASIVQTHTDEWYLAHLTGRPIHPDDDSIFQQRGYCPLGRETAIQKLYWKDEWPYVVGGKEGSLEVDAPSIPETIFEATYPEVDEFEDSTLNINFQTLRIPFTNELGSLTQAPNHLRLFGHESLTSTFTQAFVARRWQSLHFEAETAVEFYPENFQQAAGLVNYYNTENWTALQVTHDEELGRILELTICDNFSFSQPLNNKIVIPREVKYVYLRVNIEKDKYYYFYSFNKEDWHKIDIALESKKLSDDYIRGGGFFTGAFVGMQCQDTGGNHIPADFRYFRYKEK
  soluble on expression in E. coli: soluble

## MNRLLNEKVEEFKKGVLKAGWFIEKMFRNSISSLVERNESLAREVIADEEVVDQMEVEIQEKAMEVLGLFSPIGKPLLTVTAGIRVAELIENIADKCHDIAKNVLELMEEPPLKPLEDIPAMANQTSEMLKFALRMFADVNVEKSFEVCRMDSKVDDLYEKVREELLLYMMESPKYVKRALLLLEIAGNIEIIADYATNIVEVSVYMVQGEAYKCYHDELLLFKKSGGVLFESSD
  soluble on expression in E. coli: soluble

## MTETDKKQEQENHAECEDKPKPCCVCKPEKEERDTCILFNGQDSEKCKEFIEKYKECMKGYGFEVPSAN
  soluble on expression in E. coli: soluble

## MVPVRLPLFGPSRAEGPMGPLPLRRKALGILYYLALEGPTRRERLADLLWGHRVALQNLRSELTHLRSFFGKEAFRGPVLTLPPGVELDRTPGSGEAMEGLEDLSPAFADWVYGWRTRLAPGEEGTPFPKRLEAVRPPALVILIGPPGSGQESLAQALAQKLGLPLRHGLGEGAGVFYLSEPFPPKEVGLALKPLPGRVLVVARSSFGEDPSFLLALRTRFPAEVTVVEQVPCLSWREAVGGPLRHLPFAEAARFYLRSGGRVEVLRELLAMGNPEALPQRVRAMVALEARHLPWEARKALEVLALHPGPFPEKLAWILGYGEALDELEHRGWLLYCEGRYRFSEPQFRPYLTAGFGEGERCRLHARLAEAWEALGDPVAAAYHRFYGEKGEALKAAQLGSWRQALAAHPGPNVPLPRSRVRKGKKRALETEEIHLVSFQGEVAEAVLELEEPLLLHLQGEVYQELPLGLGANLEAFPFRLRSLKGEGAVYFLPRANPGYYPWGAVLPQENLDHEFLLRPGQYLLELGTPGVVSLRLQAWETAPGNQEILVPLEMTESL
  soluble on expression in E. coli: soluble
